Measured values reported in article PMC10753161.

Legend:
[1] = biological target: StBIN2-M (potato (Solanum tuberosum))
[2] = biological target: His-tagged StBIN2 protein (potato (Solanum tuberosum))

- ATP consumed by StBIN2-M with StSN2 against StBIN2 with StSN2; 5 μg kinase + 5, 10 and 15 μg StSN2 (reduced by 63%, 14% and 12%) [1]: 63 % reduction
- StBIN2 kinase activity as ATP consumption (Kinase-Lumi), 5 μg StBIN2 with varying masses of StSN2 up to 15 μg, against StBIN2 alone [2]: 10 fold
Substance: His-tagged StSN2 protein (from UniProt Q93X17 24-104) (natural protein)
